Assay results from patent publication US9333268B2, “Methods of treatment with arginine deiminase” (Polaris Group, priority 2012, dated 2016).

Assays:
[1] = tested on: human pancreatic cancer cell line MIA-PaCa2; test: Cell death by PI-FACS (sub-G1 DNA content) and Annexin V-PI flow cytometry; format: cell-based
Method: (§1) The human pancreatic cancer cell line MIA-PaCa2 was treated in vitro and in vivo with pegylated arginine deiminase (ADI-PEG) alone or in the presence of ChQ. Cell death was measured by propidium iodide (PI)-FACS to determine sub-G1 DNA content, and apoptosis was evaluated by Annexin V-PI flow cytometry. Cleavage of caspase 3 was evaluated by western blots and ELISA. Autophagy was measured by evaluating the expression levels of LC3 and […] p62 (p62) by western blots and ELISA.
(§2) In order to determine if ADI induces apoptosis and autophagy in a caspase dependent manner, cells were incubated with either ADI-PEG or a combination of ADI-PEG and ZVAD-fmk, a pan-caspase inhibitor.
(§3) The levels of p62, LC3B-I, and LC3B-II were measured by western blot analysis in order to examine autophagic flux.
In order to examine whether ChQ alters the amount of apoptotic or non-apoptotic cell death when used in combination with ADI, cells were incubated with ADI-PEG alone or a combination of ADI-PEG and ChQ.

[2] = tested on: human pancreatic cancer cell line MIA-PaCa2; test: Western blot/ELISA of caspase 3 cleavage, LC3 and p62; format: cell-based; conditions: 72 hours
Method: as §1, §2, §3

B1: ADI-PEG: ADI covalently modified with PEG (with or without a linking group) (protein, listed as Mycoplasma hominis)
chain: MSVFDSKFNGIHVYSEIGELETVLVHEPGREIDYITPARLDELLFSAILESHDARKEHQSFVKIMKDRGINVVELTDLVAETYDLASKAAKEEFIETFLEETVPVLTEANKEAVRAFLLSKPTHEMVEFMMSGITKYELGVESENELIVDPMPNLYFTRDPFASVGNGVTIHFMRYIVRRRETLFARFVFRNHPKLVKTPWYYDPAMKMSIEGGDVFIYNNETLVVGVSERTDLDTITLLAKNIKANKEVEFKRIVAINVPKWTNLMHLDTWLTMLDKNKFLYSPIANDVFKFWDYDLVNGGAEPQPQLNGLPLDKLLASIINKEPVLIPIGGAGATEMEIARETNFDGTNYLAIKPGLVIGYDRNEKTNAALKAAGITVLPFHGNQLSLGMGNARCMSMPLSRKDVKW
modifications: PEGylated
Annexin V depolarization ([1]; 0.3 μg/mL, 72 hours, vs PBS): induced Annexin V depolarization
number of cells in sub-G0/G1 ([1]; ADI-PEG alone): increased the number of cells in sub-G0/G1
LC3B conjugation with PE ([2]; dose dependent): LC3B conjugation with PE
caspase cleavage ([2]; dose dependent): induces caspase cleavage
apoptosis as measured by caspase 3 cleavage ([2]; ADI-PEG 0.3 μg/mL, western blot): induction of apoptosis
